Consider four molecules from patent US20250230251A1 (Bristol-Myers Squibb, published 2025).

Assay [1] has as its target T1, huIL-18Rβ-HisAvi (human, UniProt O95256 20-356, biotinylated in the Octet blocking assay).
T1 construct: Soluble analyte in all SPR runs; captured on streptavidin sensors in the Octet assay; also called human IL-18Rβ; human IL-18Rβ-Avi-His
T1 sequence: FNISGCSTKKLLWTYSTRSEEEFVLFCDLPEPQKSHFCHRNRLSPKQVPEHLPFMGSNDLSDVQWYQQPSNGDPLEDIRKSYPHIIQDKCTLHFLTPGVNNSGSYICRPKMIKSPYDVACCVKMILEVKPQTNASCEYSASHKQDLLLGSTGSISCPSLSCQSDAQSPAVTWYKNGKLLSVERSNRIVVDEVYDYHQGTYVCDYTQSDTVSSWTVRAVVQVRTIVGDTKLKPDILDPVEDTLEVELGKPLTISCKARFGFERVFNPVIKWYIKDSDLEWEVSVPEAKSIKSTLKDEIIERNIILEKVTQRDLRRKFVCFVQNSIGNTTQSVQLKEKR
Kind of assay: SPR T200, mAb on anti-hFc, 37C, pH 6.

For assay [2], the target named is T2, cyIL-18Rβ-HisAvi (cynomolgus monkey).
T2 construct: Soluble analyte in SPR; also called cyno IL-18Rβ; cynomolgus monkey IL-18Rβ
T2 chain: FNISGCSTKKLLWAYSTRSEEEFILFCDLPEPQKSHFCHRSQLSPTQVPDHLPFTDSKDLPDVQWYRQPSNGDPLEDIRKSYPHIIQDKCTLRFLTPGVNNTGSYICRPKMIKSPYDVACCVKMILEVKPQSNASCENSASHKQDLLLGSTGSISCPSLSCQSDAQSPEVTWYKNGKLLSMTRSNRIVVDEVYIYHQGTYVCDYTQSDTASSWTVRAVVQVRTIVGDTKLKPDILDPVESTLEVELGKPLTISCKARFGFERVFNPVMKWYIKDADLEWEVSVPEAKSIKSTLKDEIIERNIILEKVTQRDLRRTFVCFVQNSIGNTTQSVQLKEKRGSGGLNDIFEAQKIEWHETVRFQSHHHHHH
Kind of assay: SPR T200, mAb on anti-hFc, 37C, pH 6.

Assay [3] addresses T1, huIL-18Rβ-HisAvi. Kind of assay: SPR T200, mAb on anti-hFc, 37C, pH 7.4.
For assay [4], the target named is T2, cyIL-18Rβ-HisAvi. Description: SPR T200, mAb on anti-hFc, 37C, pH 7.4.
Assay [5] addresses T1, huIL-18Rβ-HisAvi. Description: SPR T200, mAb on anti-hFc, 37C, pH 6. The source holds these as a separate data set.
In assay [6] the target is T2, cyIL-18Rβ-HisAvi. Kind of assay: SPR T200, mAb on anti-hFc, 37C, pH 6.
Assay [7] has as its target T3, human IL-18Rβ on cells (human, UniProt O95256 20-599).
T3 sequence: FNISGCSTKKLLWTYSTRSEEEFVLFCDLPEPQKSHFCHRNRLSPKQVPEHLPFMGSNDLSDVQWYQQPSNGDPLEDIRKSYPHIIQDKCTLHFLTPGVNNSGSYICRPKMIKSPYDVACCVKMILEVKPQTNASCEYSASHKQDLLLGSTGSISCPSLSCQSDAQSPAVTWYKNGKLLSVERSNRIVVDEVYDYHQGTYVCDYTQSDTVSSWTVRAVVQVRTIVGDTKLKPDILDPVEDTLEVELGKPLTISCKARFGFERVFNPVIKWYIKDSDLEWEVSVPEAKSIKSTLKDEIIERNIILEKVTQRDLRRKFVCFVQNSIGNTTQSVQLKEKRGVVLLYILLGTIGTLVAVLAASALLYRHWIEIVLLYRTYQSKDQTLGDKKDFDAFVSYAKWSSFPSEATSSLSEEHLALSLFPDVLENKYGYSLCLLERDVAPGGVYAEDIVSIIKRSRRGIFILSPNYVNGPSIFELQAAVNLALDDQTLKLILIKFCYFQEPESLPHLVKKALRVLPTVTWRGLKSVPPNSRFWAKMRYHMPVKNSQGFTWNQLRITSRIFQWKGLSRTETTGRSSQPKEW
Kind of assay: cell-based or functional assay.

Assay [8] has as its target T1, huIL-18Rβ-HisAvi. Description: SPR T200, mAb on anti-hFc, 37C, pH 7.4. This is another data set of the same source.
Assay [9] addresses T2, cyIL-18Rβ-HisAvi. Description: SPR T200, mAb on anti-hFc, 37C, pH 7.4.
The target in assay [10] is T3, human IL-18Rβ on cells. Description: cell-based or functional assay. This is another data set of the same source.

The term Kd denotes the concentration at which binding is half-saturated. Lower therefore signals higher affinity. A word on the koff: it is the first-order rate constant of dissociation. Read a high koff as fast dissociation. A word on the kon: it is the rate constant with which the complex forms. High values mean faster complex formation, low ones slower complex formation.

Residue numbers refer to the chain shown, from its start.

B1: P21-V3 (antibody, human IgG1, kappa, name in Kabat numbering)
heavy: QVQLQESGPGLVKPSETLSLTCTVSGGSISNYYWTWIRQPPGKGLEWIGYISDSGSTNYNPSLKSRVTISVDTSKNQFSLKLSSVTAADTAVYYCARETIVVRGFYFYVMDVWGQGTTVTVSSASTKGPSVFPLAPSSKSTSGGTAALGCLVKDYFPEPVTVSWNSGALTSGVHTFPAVLQSSGLYSLSSVVTVPSSSLGTQTYICNVNHKPSNTKVDKRVEPKSCDKTHTCPPCPAPEAEGAPSVFLFPPKPKDTLMISRTPEVTCVVVDVSHEDPEVKFNWYVDGVEVHNAKTKPREEQYNSTYRVVSVLTVLHQDWLNGKEYKCKVSNKALPAPIEKTISKAKGQPREPQVYTLPPSREEMTKNQVSLTCLVKGFYPSDIAVEWESNGQPENNYKTTPPVLDSDGSFFLYSKLTVDKSRWQQGNVFSCSVMHEALHNHYTQKSLSLSPG
light: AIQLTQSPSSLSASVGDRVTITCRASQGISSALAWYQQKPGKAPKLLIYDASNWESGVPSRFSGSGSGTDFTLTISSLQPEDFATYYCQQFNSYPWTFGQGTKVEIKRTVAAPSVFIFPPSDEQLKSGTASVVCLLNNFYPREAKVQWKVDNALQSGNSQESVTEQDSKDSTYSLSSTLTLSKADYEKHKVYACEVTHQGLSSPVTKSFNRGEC
notes: built from the chains of the parent P21 with the printed mutations
With B1, the Kd in the assay with huIL-18Rβ-HisAvi [1] was determined as 0.66 nM; with cyIL-18Rβ-HisAvi [2] it was 8.4 nM; with huIL-18Rβ-HisAvi [3], 2.3 nM; with cyIL-18Rβ-HisAvi [4], 17 nM; with huIL-18Rβ-HisAvi [5] it was 0.66 nM; with cyIL-18Rβ-HisAvi [6] it was 8.4 nM. Moreover, the Kd with huIL-18Rβ-HisAvi [8] turned out to be 2.3 nM; in the assay with cyIL-18Rβ-HisAvi [9] it was 17 nM. For the same molecule, the koff with huIL-18Rβ-HisAvi [1] was found to be 0.00039 s⁻¹; with cyIL-18Rβ-HisAvi [2], 0.0016 s⁻¹; with huIL-18Rβ-HisAvi [3], 0.00054 s⁻¹; in the assay with cyIL-18Rβ-HisAvi [4], 0.0027 s⁻¹; with huIL-18Rβ-HisAvi [5], 0.00039 s⁻¹; with cyIL-18Rβ-HisAvi [6] it was 0.0016 s⁻¹. For the same molecule, the koff was 0.00054 s⁻¹ with huIL-18Rβ-HisAvi [8] and 0.0027 s⁻¹ in the assay with cyIL-18Rβ-HisAvi [9]. For the same molecule, the kon with huIL-18Rβ-HisAvi [1] was 590000 M⁻¹ s⁻¹; with cyIL-18Rβ-HisAvi [2], 190000 M⁻¹ s⁻¹; with huIL-18Rβ-HisAvi [3] it was 240000 M⁻¹ s⁻¹; with cyIL-18Rβ-HisAvi [4], 160000 M⁻¹ s⁻¹; with huIL-18Rβ-HisAvi [5], 590000 M⁻¹ s⁻¹; with cyIL-18Rβ-HisAvi [6], 190000 M⁻¹ s⁻¹. Besides, the results for the kon in the assay with huIL-18Rβ-HisAvi [8] and with cyIL-18Rβ-HisAvi [9] were 240000 M⁻¹ s⁻¹ and 160000 M⁻¹ s⁻¹, respectively. The “IC50, LPS+IL-12 dependent IFNg production, human whole blood” value in the assay with human IL-18Rβ on cells [7] was 1.63 nM.

B2: P20-V2 (antibody, human IgG1, kappa, V domains shown)
VH: QVQLQESGPGLVKPSETLSLTCTVSGGSINNYYWSWIRQPPGKGLEWIGYIFYSGTTNYNPSLKSRVTISVDTSKNQFSLKLSSVTAADTAVYYCARDVGIAARNSYYYVMDVWGQGTTVTVSS
VL: AIQLTQSPSSLSASVGDRVTITCRASQGISSALAWYQQKPGKAPKFLIYEGSSLESGVPSRFSGSGSGTDFTLTISSLQPEDFATYYCQQFNSYPITFGQGTRLEIKR
notes: Variant of P20
As for B2, the Kd with huIL-18Rβ-HisAvi [1] was determined as 0.29 nM; in the assay with cyIL-18Rβ-HisAvi [2], 1.4 nM; with huIL-18Rβ-HisAvi [3], 0.24 nM; in the assay with cyIL-18Rβ-HisAvi [4] it was 0.92 nM. The off-rate (koff) with huIL-18Rβ-HisAvi [1] was 0.00013 s⁻¹; with cyIL-18Rβ-HisAvi [2], 0.00023 s⁻¹; with huIL-18Rβ-HisAvi [3], 8.9e-05 s⁻¹; with cyIL-18Rβ-HisAvi [4] it was 0.00016 s⁻¹. For the same molecule, the kon with huIL-18Rβ-HisAvi [1] amounted to 440000 M⁻¹ s⁻¹; in the assay with cyIL-18Rβ-HisAvi [2] it was 160000 M⁻¹ s⁻¹; with huIL-18Rβ-HisAvi [3], 360000 M⁻¹ s⁻¹; with cyIL-18Rβ-HisAvi [4] it was 180000 M⁻¹ s⁻¹. Also, the “Average IC50, LPS+IL-12 dependent IFNg production, human whole blood” value with human IL-18Rβ on cells [10] turned out to be 0.37 nM.

B3: P20-V3 (antibody, human IgG1, kappa, V domains shown)
VH: B2 VH
VL: B2 VL with E50G, G51A
notes: Variant of P20
Consider B3, for which the Kd came out at 0.36 nM with huIL-18Rβ-HisAvi [1], 2.4 nM with cyIL-18Rβ-HisAvi [2], 0.72 nM with huIL-18Rβ-HisAvi [3] and 1.5 nM in the assay with cyIL-18Rβ-HisAvi [4]. Further, the koff came to 0.00014 s⁻¹ with huIL-18Rβ-HisAvi [1], 0.00042 s⁻¹ in the assay with cyIL-18Rβ-HisAvi [2], 0.00019 s⁻¹ with huIL-18Rβ-HisAvi [3] and 0.0003 s⁻¹ in the assay with cyIL-18Rβ-HisAvi [4]. The kon with huIL-18Rβ-HisAvi [1] turned out to be 390000 M⁻¹ s⁻¹; with cyIL-18Rβ-HisAvi [2] it was 180000 M⁻¹ s⁻¹; with huIL-18Rβ-HisAvi [3], 270000 M⁻¹ s⁻¹; with cyIL-18Rβ-HisAvi [4] it was 200000 M⁻¹ s⁻¹. The “Average IC50, LPS+IL-12 dependent IFNg production, human whole blood” value in the assay with human IL-18Rβ on cells [10] came to 1.52 nM.

B4: P20-V6 (antibody, human IgG1, kappa, name in Kabat numbering)
heavy: QVQLQESGPGLVKPSETLSLTCTVSGGSINNYYWSWIRQPPGKGLEWIGYIFYSGTTNYNPSLKSRVTISVDTSKNQFSLKLSSVTAADTAVYYCARDVGIAARNSYYYVMDVWGQGTTVTVSSASTKGPSVFPLAPSSKSTSGGTAALGCLVKDYFPEPVTVSWNSGALTSGVHTFPAVLQSSGLYSLSSVVTVPSSSLGTQTYICNVNHKPSNTKVDKRVEPKSCDKTHTCPPCPAPEAEGAPSVFLFPPKPKDTLMISRTPEVTCVVVDVSHEDPEVKFNWYVDGVEVHNAKTKPREEQYNSTYRVVSVLTVLHQDWLNGKEYKCKVSNKALPAPIEKTISKAKGQPREPQVYTLPPSREEMTKNQVSLTCLVKGFYPSDIAVEWESNGQPENNYKTTPPVLDSDGSFFLYSKLTVDKSRWQQGNVFSCSVMHEALHNHYTQKSLSLSPG
light: AIQLTQSPSSLSASVGDRVTITCRASQGISSALAWYQQKPGKAPKFLIYDASSLESGVPSRFSGSGSGTDFTLTISSLQPEDFATYYCQQFNSYPITFGQGTRLEIKRTVAAPSVFIFPPSDEQLKSGTASVVCLLNNFYPREAKVQWKVDNALQSGNSQESVTEQDSKDSTYSLSSTLTLSKADYEKHKVYACEVTHQGLSSPVTKSFNRGEC
notes: built from the chains of the parent P20 with the printed mutation
Regarding B4, the Kd with huIL-18Rβ-HisAvi [1] came out at 0.13 nM; in the assay with cyIL-18Rβ-HisAvi [2], 0.61 nM; with huIL-18Rβ-HisAvi [3], 1 nM; with cyIL-18Rβ-HisAvi [4], 2.9 nM; in the assay with huIL-18Rβ-HisAvi [5], 0.13 nM; with cyIL-18Rβ-HisAvi [6], 0.61 nM. The Kd in the assay with huIL-18Rβ-HisAvi [8] came out at 1 nM; with cyIL-18Rβ-HisAvi [9], 2.9 nM. Further, the koff in the assay with huIL-18Rβ-HisAvi [1] turned out to be 6.8e-05 s⁻¹; with cyIL-18Rβ-HisAvi [2], 0.00015 s⁻¹; with huIL-18Rβ-HisAvi [3], 0.00022 s⁻¹; with cyIL-18Rβ-HisAvi [4], 0.00032 s⁻¹; in the assay with huIL-18Rβ-HisAvi [5], 6.8e-05 s⁻¹; with cyIL-18Rβ-HisAvi [6], 0.00015 s⁻¹. Moreover, the koff in the assay with huIL-18Rβ-HisAvi [8] stood at 0.00022 s⁻¹; with cyIL-18Rβ-HisAvi [9], 0.00032 s⁻¹. Also, the kon was 520000 M⁻¹ s⁻¹ with huIL-18Rβ-HisAvi [1]; 250000 M⁻¹ s⁻¹ in the assay with cyIL-18Rβ-HisAvi [2]; 210000 M⁻¹ s⁻¹ with huIL-18Rβ-HisAvi [3]; 110000 M⁻¹ s⁻¹ with cyIL-18Rβ-HisAvi [4]; 520000 M⁻¹ s⁻¹ with huIL-18Rβ-HisAvi [5]; 250000 M⁻¹ s⁻¹ in the assay with cyIL-18Rβ-HisAvi [6]. Besides, the kon in the assay with huIL-18Rβ-HisAvi [8] is 210000 M⁻¹ s⁻¹; with cyIL-18Rβ-HisAvi [9], 110000 M⁻¹ s⁻¹. Also, in the assay with human IL-18Rβ on cells [7], the “IC50, LPS+IL-12 dependent IFNg production, human whole blood” value worked out at 0.85 nM.
